Here are results for 41 sequences from the nanobody polyreactivity screen of Harvey et al. (2022).

This data set in a line: yeast display, Sf9 membrane polyspecificity reagent, FACS + sequencing; frameworks hold sequencing errors. Put shortly: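 Synthetic nanobody libraries on Saccharomyces cerevisiae BJ5465 were galactose-induced for 36–48 hours, stained 1 hour at 4 °C with 10% biotinylated, detergent-solubilized Sf9 membrane reagent and enriched on streptavidin microbeads. FACS then separated cells into low and high (top ~1%) gates by anti-HA (expression) and streptavidin (reagent binding) fluorescence. Genes were colony-PCR amplified, MiSeq 2 × 250 sequenced and CDR-length filtered. A clone's polyreactivity label is that of its gate of origin.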
Turning to “QVQLQESGCGLVQAGGSLRLSCAASGNIFEADIMGWYHQAQGKERELVASITDGGSTNYADSVKGRFTINRDNAKNNVYLQMNSLKPEDTAVYSCAAIAYPDIPTYFDYDSDYFYWGQGTQVTVSS”, the “polyreactivity (PSR sort gate)” value is reported as “high polyreactivity”.
As to “QVQLQESGDGLLQAVGSLRLSCAASGYISGYYYMGWYRQAPGKERELVAGIDAFGSSTNYADCVKGRFTISRDNGKNTVYLQMNSLKPEDTAVYYCAARPDGDRLFSYWGQGTQVTVSS”, the “polyreactivity (PSR sort gate)” value is recorded as “low polyreactivity”.
With “QVQLQESGDGLVQAVGSLRLSCAASGYSSGYYYMGWYRQAPGKERELVAGIDAFGISTNYADCVKGRFTISRDNAKNTVYLQMTSLKPEDTAVYYCAARPDGDRLFSYWGQGTQVTVSI” the entry was “low polyreactivity”; with “QVQLQESGGGLAQAVGSLRLSCAASGNIFDPDIMGSYRQAPAKERELVGSITHGGSTNYVDSVKGRFTISRDNATNTVHLQMNRLKPVDTGVYYCAAIGYPDIPSYFDYDSDFFNWGHGTQVTVSS”, “high polyreactivity”.
With “QVQLQESGGGLEKACGSLRLSCAASVNISPRDAMCWYRQAPGEERDLVASNAYSAITYYADGVKGRYTISRDNAKNTVYLHMNSLKPEDTEVYYCAVYQFPYPVFPAYCGQGTQVTVSS” the entry was “low polyreactivity”; with “QVQLQESGGGLEQAGGSLRMSCAASGTIFSEANMGWYRQAPGKERELVATIGQGSTTNYADSVKGRFTISRDNAKNTVYLQMNSLKPEETPVYYCAVVTVDPVGFVYWGQGTQVTVSS”, “low polyreactivity”; with “QVQLQESGGGLMQAGGSQRLSCAASGSISSYSDMGWYRQAPGKEREFVAGIGYGTTTNYADSVKGRFTTSRDNAKNTVYLQMISMKPEDTAVYYCAAYQGNGYEFYYWGQGTQVTVRS”, “low polyreactivity”.
As for “QVQLQESGGGLMQAGGSQRLSCAASGSISYYSDRGWYRQAPGKEREFVAGIGYGTTTNYADSVKGRFTTSRDNAKNTVYLQMICMKPEDTAVYYCAAYQGNGYEFYYWGQGTQVTVRS”, the entry is “low polyreactivity”; as for “QVQLQESGGGLVHAAGILRLSCAACGNIFPSAVMGWYRQALGKEREFVATLNSGSNTYYADSVKGRFTIRRDNAKNTVYLQMNSLKLEDTGVYYCAAYFNLPAWHTYWGQGTQVTVSS”, “low polyreactivity”.
As for “QVQLQESGGGLVHACGSLRPSCAASGSISDSWRMSWYRQAPGTEREFVAGITWGGTTNYADSVKGRFTISRDNAKNTVYLQMNSLKPEDTAVYYCNARQRTYYRTHRIRHKGNGYWGQGTQVTVSS”, the “polyreactivity (PSR sort gate)” value is recorded as “low polyreactivity”.
As for “QVQLQESGGGLVHAGGSLRLSCAASGTISFINMMGWNRQAPGRERELVASINFGANTNYADSVKGRFTISRDNAKNTVYVQMNSLKPEDTAVYYCAVYDFDAYTLDYWGQGTLVTVSS”, the entry is “high polyreactivity”; as for “QVQLQESGGGLVHAGGSLRLSCAASGTISFINMMGWYRQAAGRERELVASINFGANTNYADSVKGRFTISRDNAKNTVYLQMNSLKPEDTAVYYCAVYDFDAYTLYYWGQGTLVTVSS”, “high polyreactivity”; as for “QVQLQESGGGLVHPGGSLRLSCAASCSISHYIFMGWYRQAPGKEREFVAGIGYGGTTNYADSVKGRFTISRDNAKNTVYLQMNSLKPEDTAMYYCAAREATEFYLYYWGQGTQVTVSS”, “low polyreactivity”.
Regarding “QVQLQESGGGLVKAGGSLRLSCAASGNISNHNDMGWYRQAPGKEREFVAGITAGGNTNYADSVKGRFTISRDNAKNTVYLQMNSLKPEDTAVYYCAAYPDYAKSYGYWGQGTQATVSS”, the “polyreactivity (PSR sort gate)” value is “low polyreactivity”.
With “QVQLQESGGGLVKAGGSLRLSCAASGNISPRDAMGWYRQAPGEERDLVASNAYSAITYYADGVKGRYSISRDNAKNTVYLQMNSLKPEDTEVYYCAVYQFTYPVFPAYWGQGTQVSVSS” the entry was “low polyreactivity”; with “QVQLQESGGGLVLAGGSLRLSCAASGSIFLFYTMGWYRQAPVKEREFVAGITLRTPTYNADSVKGRFTISRDNVKNTVYLQMNSLKPEDTAVYYCAVAVGHYTEIWYWGQGTQVTMSS”, “high polyreactivity”.
As for “QVQLQESGGGLVQAGDSQRLSCAASGNIFRFTDMGWYRKAPGKERELVAAINAGSTTYYADSVKGRFTISRDNAKNTVYLQMNSLKPEDTAVYYCAVYYLGSGTFGYWGQGAQVTVSS”, the entry is “high polyreactivity”; as for “QVQLQESGGGLVQAGGCLSCTASGTIFGQGDMGWYRQAPGKERELVATINDGASTYYADSVKGRFTISRDKAKNTVNLQKNSLKPDDTAVYYCAVFTDITTYFGYWGQGTQVTVSS”, “low polyreactivity”; as for “QVQLQESGGGLVQAGGGLRLSCAASGTISGPHVMGWYRQAPGEEREFVAAINVGANTYYADNVKGRFTISRDNAKNTVYLQMNSLKPEDTAVYYCAAVYYGDIGHEYWGQGTQVTVSC”, “low polyreactivity”.
As for “QVQLQESGGGLVQAGGGLRLSCAASGTISGPHVMGWYRQAPGKEREFVAAINVGANTYYADNVKGRFTISRDNAINTVYLQMNSLKPEDTAVYYCAAVYYGDIGHEYWGQGTQVTVSC”, the entry is “low polyreactivity”; as for “QVQLQESGGGLVQAGGNPRLSCAASGNSSWSAHMGWYRQTPGKERELVASNTAGTSTNYADSVKGRFTISRDNAKNTVYLQMNSLKPEDTAVSYCATLGYFSASRTDYDYWGQGTQVTVSS”, “low polyreactivity”.
For “QVQLQESGGGLVQAGGRLRLSCAASGNIFEADIMGWYNKAQGKERELVASITDGGSTNYADSVKGRFTINRYNAKNNVYLQMNSLKPEDTAVYYCAAIAYPDIPTYFDYDSDYFYWGQGTQVTVSS”, the “polyreactivity (PSR sort gate)” value is listed as “high polyreactivity”.
For the sequence “QVQLQESGGGLVQAGGSLGCAASGNISTRSEMGWYRQAPGNEREFVATINSGGLTNYADSVKGRFTISRDNAKNTVNLRMNSLKPEDTAVYYRAVYGYFSDPYDYWGQGTQVTVSS”, the “polyreactivity (PSR sort gate)” value is “low polyreactivity”.
As for “QVQLQESGGGLVQAGGSLLSCAASGTISYYREMGWYRQAPGKERELVAGIGVGTITYYADSVKGRFTISRDNAKNTVYLQMNSLKPEDTAVYYCAALIDGNDSHAYWGQGTQVTVSS”, the entry is “low polyreactivity”; as for “QVQLQESGGGLVQAGGSLRLSCAASCTISQEDWMGWYRQAPCKEREFVASIGLGSNTNYADSLKGRFTISRDNAKNTVYLKMNSLKPEYTAVYYCASEENLAYYFKYYYWGQGTQVTVSS”, “low polyreactivity”.
As for “QVQLQESGGGLVQAGGSLRLSCAASDYIFPYKPKGWYRQAPGKEREFVATIATGGSTNYADSVKGRFTISRDNAKNTVYLQMNSLKPEDTAVYYCAVYGGPAGYLTYRGQGTQVTVSS”, the entry is “high polyreactivity”; as for “QVQLQESGGGLVQAGGSLRLSCAASGFIFARNYIGWYRQAPGKERELVAGIGEGASTNYADSVKGRFTISRDNAKNTVYLQMNSLEPEDTAVYYCAVGDTVLGYHYYWGQGTQVTVSN”, “low polyreactivity”; as for “QVQLQESGGGLVQAGGSLRLSCAASGFIFARNYMGWNRQAPGKERELVAGIGVGASTNYADSVKGRFTISRDNAKNTVYLQINSLEPEDTAVYYCAVGDTVLGYHYYWGQGTQVTVSI”, “low polyreactivity”.
As for “QVQLQESGGGLVQAGGSLRLSCAASGHISIKLQRGWYRAAPGKERELVATINLGAITYYADSVKGLITNSRDNAKNTVYLQLNSLKPEDTAVYYCAARWRSGFTSGDYWGQGTQVTVSS”, the entry is “low polyreactivity”.
On to “QVQLQESGGGLVQAGGSLRLSCAASGIIFDNPNMGWYRQAPGKERELVATINSGATTNYADSVKGRFTISRDNENNTVYLQMNSLIPEDTAVYYCAVDLSPTYFYFWGQGTQVTVSS”, for which the “polyreactivity (PSR sort gate)” value is “high polyreactivity”.
With “QVQLQESGGGLVQAGGSLRLSCAASGNIFLGDTMGWYRQAPGKEREFVAGIARGGNPYYADSVKGRFTISRNNAKNTVFLQKNSLKPEDTAVHYCAVQRSHASDYNYWGQGTQVTVSS” the entry was “low polyreactivity”.
For “QVQLQESGGGLVQAGGSLRLSCAASGNISVTGFMGWYRQAPGKERELVASIGIGGTTYYADSVKGRFSISRDNAKNTVYVQMNSLKPEDTAVYYCAARYLYYAYSYWGQGTQVTVRS”, the “polyreactivity (PSR sort gate)” value is “low polyreactivity”.
As for “QVQLQESGGGLVQAGGSLRLSCAASGNISVTGFMGWYRQAPVKERELVASIGIGGTTYYADSVKGRFSISRDNAKNTVYLQMNSLKPEDTAVYYCAARYLYYAYSYWGQGSQVTVSS”, the entry is “low polyreactivity”; as for “QVQLQESGGGLVQAGGSLRLSCAASGSIFADVQMGWYRQAPGKERELVASINFRGTTSYYADSVKGRFTISRDNAKNTVYLQMSSLKPEETEVYYCAVGRSEGGDFAYWGQGTHVTVSS”, “low polyreactivity”.
With “QVQLQESGGGLVQAGGSLRLSCAASGSIFDGFNMGWYRQAQGKEREFVAAISYGASTYYADSVKGRFTVSRDNAKNSVYLQMNSLKPEDTAVYYCAVYDELYHVLVYWGRGTQVTVSS” the entry was “low polyreactivity”; with “QVQLQESGGGLVQAGGSLRLSCAASGSIFDYVSMGWYRQAPGEERELVVTITLGSNTYYADSVKGRFTISSDIAKNSVYLQMNSLNPEDTAVYYCAASALWGYVYPYWGLGTQVTVSS”, “high polyreactivity”; with “QVQLQESGGGLVQAGGSLRLSCAASGSIFHLHIMCWYRQAPGKESESVAAISYGTSTYYADSVKGRFTICRDNAKNTVYLQMNSPKPDDTAVYYCAALFLVSKHHHYWGEGTQVTVSS”, “low polyreactivity”.
In the case of “QVQLQESGGGLVQAGGSLRLSCAASGSIFVSVTMGWYRQAPGKERELGASIGRGSTTNHADSVKGRFTISRDNAKNIVYLLMNSLKPEDTAVYYCAALESYGKYHGYWGQGTLVTVSS”, the “polyreactivity (PSR sort gate)” value is given as “low polyreactivity”.
As for “QVQLQESGGGLVQAGGSLRLSCAASGSIFYVYGMGWYRLAPGKVRELVAGINAGTNTNYADSVRGRFTISRDNAKNTVHLQMTSLNPEETAVYYCAADGNGYQAHEYWGQGTQVTVSS”, the entry is “high polyreactivity”; as for “QVQLQESGGGLVQAGGSLRLSCAASGSISGPQVMGWYRQAPGKEREFVAAINVGANTYYADNVKGRFTISRDNAKNTVYLQMTSLKPEDTAVYYCAAVYYGDIGHEYWGQGTQVTVSC”, “low polyreactivity”.
On to “QVQLQESGGGLVQAGGSLRLSCAASGSISHYIFMCWYRQSPGKEREFVAGIGYGGTTNYADSVKGRFTISRDNAKNTVYLQMISLTPEDTAMYYCAAREATEFYLYYWGQGTQVTVSS”, for which the “polyreactivity (PSR sort gate)” value is “low polyreactivity”.
